Measurements from the DeepSol protein solubility set.

test: soluble on expression in E. coli; label from the status in PepcDB or PDB records

| Sequence | soluble on expression in E. coli |
| --- | --- |
| MASVASCDSRPSSDELPGDPSSQEEDEDYDFEDRVSDSGSYSSASSDYDDLEPEWLDSVQKNGELFYLELSEDEEESLLPETPTVNHVRFSENEIIIEDDYKERKKYEPKLKQFTKILRRKRLLPKRCNKKNSNDNGPVSILKHQSNQKTGVIVQQRYKDVNVYVNPKKLTVIKAKEQLKLLEVLVGIIHQTKWSWRRTGKQGDGERLVVHGLLPGGSAMKSGQVLIGDVLVAVNDVDVTTENIERVLSCIPGPMQVKLTFENAYDVKRETSHPRQKKTQSNTSDLVKLLWGEEVEGIQQSGLNTPHIIMYLTLQLDSETSKEEQEILYHYPMSEASQKLKSVRGIFLTLCDMLENVTGTQVTSSSLLLNGKQIHVAYWKESDKLLLIGLPAEEIELPSSAHTHGERN | soluble |
| MASWSHPQFEKGALEDPRSLYDLPPYGDATLLYFSDLHGQAFPHYFMEPPNLIAPKPLMGRPGYLTGEAILRYYGVERGTPLAYLLSYVDFVELARTFGPIGGMGALTALIRDQKARVEAEGGKALVLDGGDTWTNSGLSLLTRGEAVVRWQNLVGVDHMVSHWEWTLGRERVEELLGLFRGEFLSYNIVDDLFGDPLFPAYRIHRVGPYALAVVGASYPYVKVSHPESFTEGLSFALDERRLQEAVDKARAEGANAVVLLSHNGMQLDAALAERIRGIDLILSGHTHDLTPRPWRVGKTWIVAGSAAGKALMRVDLKLWKGGIANLRVRVLPVLAEHLPKAEDVEAFLKAQLAPHQDHLFTPLAVSETLLYKRDTLYSTWDQLVGEAVKAIYPEVEVVFSPAVRWGTTILPGQAITWDHLYAYTGFTYPELYLFYLRGAQIKAVLEDIASNVFTSDPFYQQGGDVSRVFGLRYVLDPDAPTGERVREVEVGGRPLDPNRRYLAAAYGGRLQRVGEAKPGYEPRPIYEVLAEYLRSVGRVRVRPEPNVKVIGRNYRLPEVTG | soluble |
| MASYPCHQHASAFDQAARSRGHNNRRTALRPRRQQEATEVRPEQKMPTLLRVYIDGPHGMGKTTTTQLLVALGSRDDIVYVPEPMTYWRVLGASETIANIYTTQHRLDQGEISAGDAAVVMTSAQITMGMPYAVTDAVLAPHIGGEAGSSHAPPPALTLIFDRHPIAALLCYPAARYLMGSMTPQAVLAFVALIPPTLPGTNIVLGALPEDRHIDRLAKRQRPGERLDLAMLAAIRRVYGLLANTVRYLQCGGSWREDWGQLSGTAVPPQGAEPQSNAGPRPHIGDTLFTLFRAPELLAPNGDLYNVFAWALDVLAKRLRSMHVFILDYDQSPAGCRDALLQLTSGMVQTHVTTPGSIPTICDLARTFAREMGEAN | soluble |
| MATFNSYTVDEIREIVDPDHPETLLEQAKGWAEMADLLSEYGVLLEQRLELVEDSWTGDAARLYFDEVKRMQEYIEESAERATTNAGLWFLIGTLAGIAKHDVSYIHKLWKDLDNVTDAVGLGFILEAIGVDKAVEDFKRMPYDVASRQIMEATATAAEESYSQMRDFEEFKPPPDVDGSGPTLQSVSAVAPPGGAVSLPSTTIVSNAAMPPLGPVAMRPVVPGVIGSRPGMTSMPRPMMGPGHTVRPVIGQRTGESQQTKTPGRLIGRYGVVSATPDVDMRDPKASRIHYGGDDVNRGVIKNNDPQRAAEEARFKLEEEVLRLRERAFAHRADDLTPAHTQHVLPGIVGDDSGWDRKTHDPGPVAFEMRRRPDRDDDAWTVI | not soluble |
| MATIHVDGKEYEVNGADNLLEACLSLGLDIPYFCWHPALGSVGACRQCAVKQYQNAEDTRGRLVMSCMTPASDGTFISIDDEEAKQFRESVVEWLMTNHPHDCPVCEEGGNCHLQDMTVMTGHSFRRYRFTKRTHRNQDLGPFISHEMNRCIACYRCVRYYKDYADGTDLGVYGAHDNVYFGRPEDGTLESEFSGNLVEICPTGVFTDKTHSERYNRKWDMQFAPSICQQCSIGCNISPGERYGELRRIENRYNGTVNHYFLCDRGRFGYGYVNLKDRPRQPVQRRGDDFITLNAEQAMQGAADILRQSKKVIGIGSPRASVESNFALRELVGEENFYTGIAHGEQERLQLALKVLREGGIYTPALREIESYDAVLVLGEDVTQTGARVALAVRQAVKGKAREMAAAQKVADWQIAAILNIGQRAKHPLFVTNVDDTRLDDIAAWTYRAPVEDQARLGFAIAHALDNSAPAVDGIEPELQNKIDVIVQALAGAKKPLIISGTNAGSIEVIQAAANVAKALKGRGADVGITMIARSVNSMGLGIMGGGSLEEALTELETGRADAVVVLENDLHRYASATRVNAALAKAPLVMVVDHQRTAIMENAHLVLSSASFAESDGTVINNEGRAQRFFQVYDPAYYDSKTVMLESWRWLHSLHSTLLSREVDWTQLDHVIDAVVAKIPELAGIKDAAPDATFRIRGQKLAREPHRYSGRTAMRANISVHEPRQPQDIDTMFTFSMEGNNQPTAHRSQVPFAWAPGWNSPQAWNKFQDEVGGKLRFGDPGVRLFETSENGLDYFTSVPARFQPQDGKWRIAPYYHLFGSDELSQRAPVFQSRMPQPYIKLNPADAAKLGVNAGTRVSFSYDGNTVTLPVEIAEGLTAGQVGLPMGMSGIAPVLAGAHLEDLKEAQQ | not soluble |
| MATIPSVVREITLVGEQIFDHTQVVRAEIDRFVERFERNERHREFDGILRASHALVESSETPVEGLFDMGKMEHMTQCVDDITKKLQTLVEPKYQKEHDVYLEKVKEDQKKYVDVCREQAMNKMRSMTAHR | not soluble |
| MATKEKHVRKPDWVKIKLNTNENYIGLKKLMRENRLHTVCEEAKCPNIHECWAVRRTATFMILGSVCTRACRFCAVKTGLPTELDWQEPERVAESVRIMNLKHVVVTAVARDDLKDGGAAVFAETVRAIRRKNPFTTIEVLPSDMGGVYENLKILMDARPDILNHNIETVRRLTPRVRARATYERSLEFLRRAKELQPDIPTKSSIMVGLGETKEEIIEAMDDLRANHVDILTIGQYLQPTKKHLKVVKYYHPDEFQELKEIALSKGFSHCEAGPLVRSSYHADEQVSEAAKARQLKA | not soluble |
| MATKRDYYEILGLSKDSSVEDIKKTYRKLALQYHPDRNKEPGAEEKFKEISEAYAVLSDAEKRAQYDRFGHAGIDNQYSAEDIFRGADFGGFGDIFEMFFGGGRRGGPMGPRRGSDLQYDLYVTFEEAAFGVRKDIDIPRTERCSTCSGTGAKPGTSPKRCPNCGGTGQVRTTRSTLGMQFVSTTTCSACHGRGQVVESPCPTCSGAGRVRSRRKMSVNVPAGADSGMTLRLSGEGDAGEPGAPSGDLYIIVHVMEHKYFKRVDYDVISELPISFTQAALGADIMVDTLYGKVKMNIPSGTQTHSVFRLKDKGIQRLQGHGKGDQLVRVIIRTPTKLTQEQKDLLHQFEYLSNGKKPEAEERSRSDKQKSEKPRKSKGLFEKVKDAFES | not soluble |
| MATQHPIGKKTACVVGGTGFVASLLVKLLLQKGYAVNTTVRDPDNQKKVSHLLELQELGDLKIFRADLTDELSFEAPIAGCDFVFHVATPVHFASEDPENDMIKPAIQGVVNVMKACTRAKSVKRVILTSSAAAVTINQLDGTGLVVDEKNWTDIEFLTSAKPPTWGYPASKTLAEKAAWKFAEENNIDLITVIPTLMAGSSLTSDVPSSIGLAMSLITGNEFLINGMKGMQMLSGSVSIAHVEDVCRAHIFVAEKESASGRYICCAANTSVPELAKFLSKRYPQYKVPTDFGDFPPKSKLIISSEKLVKEGFSFKYGIEEIYDESVEYFKAKGLLQN | soluble |
| MATQTSKNPESVHDFTVKDAKENDVDLSIFKGKVLLIVNVASKCGMTNSNYAEMNQLYEKYKDQGLEILAFPCNQFGEEEPGTNDQITDFVCTRFKSEFPIFDKIDVNGENASPLYRFLKLGKWGIFGDDIQWNFAKFLVNKDGQVVDRYYPTTSPLSLERDIKQLLEIS | soluble |
| MATSRMVQARVPEEIQNVASQVIQASGLTVSDVVRVLMTRIAQDKAIPSVLFQPNAETIAAFAEVDEGNLKKFHSVDELFDDLYADD | not soluble |
| MATSSHLNWLIIRNNNAFLLKKRDVKKPFSTEPNNLASVSSYRYSGIVHKKTLGVVPAADKKGFTAVLKKGKYAQRPAKNTVRVDFKAGPRRSLKKLKNLLIGSKYRKDLTQAALRRASAVLRSQKPAPVKGKKAEFAKGKKPELEHHHHHH | not soluble |
| MATVDPIRYPIGTFQAPQQFEAGEVQEWIAAIRGLPNDLRTAVSGLNDEQLNTPYRDGGWTVAQVVHHLADASMNAFLRTKWGVTEDGPTVKPFAESEWAKTADACSLPIEPSLLLLDGLHARWAALLESMTEADFHRTVRPEGAAGEMPLYVLTALYAWHGKHHTAQVASLRKRKGW | not soluble |
| MAVDAVGRQKTIQEIIDSTTNKSTQRNTGELGKDEFLNLLITQLQYQDPLNPVDDKEFISQMAQFSALEQMQNLNKSFSATKAFGMIGKYITGTTSNGSDSGAGFVEGIVRSVKMENGKILLEVNGLDVPVDNVLSVSEESNYYYKYNSSNISQYTGIIGYEVSGSVYDPSTGDIVGVSGIVREIQKGIYEDYAVMDGVEVIISGIDTEFNSADPNFRKDYLTENVGQGVSLIITDAYGYGFKVPVTGVLKDFKIAPNGKIIGILDGVYVPVDSISNIKKPSANTGAADGTNENPQVEQSQTEESQVEEPQVGEPRDEESDSV | soluble |
| MAVPQLYYFNLRGFGEYIRLLFLDNGIQFEDIRFDYEGKEWQEFKKGMLLGQLPCLKVDRQEIVQTGAIMRHLGRVHEKNLARNFNFSKKYLMGKLTFLEKCGLNGSNEQEATFLDMFFEGVRDVRWKYVRSSRTLKSFWERMWKRPNLNAYLEKRKADKVRINGSDKGMN | not soluble |
| MAVQKNVIKGILAGTFALMLSGCVTVPDAIKGSSPTPQQDLVRVMSAPQLYVGQEARFGGKVVAVQNQQGKTRLEIATVPLDSGARPTLGEPSRGRIYADVNGFLDPVDFRGQLVTVVGPITGAVDGKIGNTPYKFMVMQATGYKRWHLTQQVIMPPQPIDPWFYGGRGWPYGHGGWGWYNPGPARVQTVVTE | not soluble |
| MAVSNIWQSYSSSNLHWIYPLYTNNCSQNVKSSFTAEILLKRRCNDIQDILNDRMIELLLQGACDPNKQQNYLQGMSPSRKKKTHVKKFLKKQKKSRKPITLEHGCLSGPVTLRFGNFAGIRDLRGTRCPLHGIKHGVHPKPGERCACQQATLFPSPLARFSCDQSAVLGCAASSTRVYDSIADEFSSLYF | not soluble |
| MAWDLKVKMLGGNDFLVSVTNSMTVSELKKQIAQKIGVPAFQQRLAHQTAVLQDGLTLSSLGLGPSSTVMLVVQNCSEPLSILVRNERGHSNIYEVFLTQTVDTLKKKVSQREQVHEDQFWLSFEGRPMEDKELLGEYGLKPQCTVIKHLRLRGGGGDQCA | not soluble |
| MAYEDLREFIGRLEDKGELARVKHEVSPILEMSEVADRTVKAGGKALLFERPKGYDIPVFMNAFGTERRMKLALEVERLEEIGERLLSALEFRPSSFMDALKGVGMLKDFMSFIPKKTGKAPCKEVVAESLDKFPILKCWPKDAGRFITFPVVITKDPETGEMNAGMYRMQVFDGKTTGMHWQIHKHGAEHFRKMAEKGGGKIEVAVAIGVDPATLYAATAPLPSGISEFMFAGFIRKERLKVTECETVDLLVPANAEIILEGYVRVDEMRVEGPFGDHTGYYTPPEPYPVFHITHITHRENPIYHATVVGKPPMEDAWLGKATERIFLPILRMMHPEIVDINLPVEGAFHNLAIVSIKKRYPGQAKKVMYAIWGTGMLSLTKIVVVVDDDVNVHDMREVVWAVTSRFDPARDVVILPPSPTDSLDHSAYIPNLAGKLGIDATKKWRDEGYEREWPDVVEMDAETKRKVDAIWNEIRNMVLAAALEHHHHHH | not soluble |
| MAYEISKKVLHIVGKTNATYKLIEEGDKILLGLSGGKDSIMLACILARMQKHAPFKFDFKAVTVHYGLGEDLKWLSDLCQEQGIEHEIIYTQIAATINEKRREKSSFCSFCSRLRRGTLYSKALEEGYNKVAIAHHLDDAVESFFMNFTYNGSLRSMPPIYRAENGLLVIRPLIKVREASSIHFVTSQNIPVAPDCNCPAKQPTSDKPPIARLATKNFLKEMQNLHPRFFDSLENAFNNVQANSFSDAKYLDALEHHHHHH | soluble |
